Legend:
[1] = molecular target: T1, C-terminal domain of mouse Dnmt3a (residues 608-908) (mouse, UniProt O88508 608-908); experiment: co-purification
[2] = molecular target: T1, C-terminal domain of mouse Dnmt3a …; experiment: AUC

T1 sequence (O88508 608-908): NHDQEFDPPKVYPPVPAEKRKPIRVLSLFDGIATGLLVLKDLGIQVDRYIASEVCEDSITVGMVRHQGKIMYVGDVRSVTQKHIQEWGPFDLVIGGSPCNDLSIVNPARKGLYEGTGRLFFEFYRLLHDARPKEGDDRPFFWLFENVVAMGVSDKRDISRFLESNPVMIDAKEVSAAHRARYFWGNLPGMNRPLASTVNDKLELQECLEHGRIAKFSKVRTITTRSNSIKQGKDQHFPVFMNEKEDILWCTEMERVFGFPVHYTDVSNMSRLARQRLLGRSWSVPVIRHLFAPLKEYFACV

stoichiometry N [1]: 1 | stoichiometry N [2]: 1 2:2 (Dnmt3a-C:Dnmt3L-C)
B1: C-terminal domain of mouse Dnmt3L (residues 208-421) (domain or fragment, UniProt Q9CWR8 208-421, looked up)
chain: GPMEIYKTVSAWKRQPVRVLSLFRNIDKVLKSLGFLESGSGSGGGTLKYVEDVTNVVRRDVEKWGPFDLVYGSTQPLGSSCDRCPGWYMFQFHRILQYALPRQESQRPFFWIFMDNLLLTEDDQETTTRFLQTEAVTLQDVRGRDYQNAMRVWSNIPGLKSKHAPLTPKEEEYLQAQVRSRSKLDAPKVDLLVKNCLLPLREYFKYFSQNSLPL

Source: PMC2588524 (Nucleic Acids Research, 2008)
